Laboratory results: US11155586B2, “Cystine knot scaffold platform” (Genentech, Inc., priority 2015, dated 2021)
Positions of bridges follow the written chain, without caps; N, C: chain ends. Non-standard residues stand in square brackets, D forms with d. Residues, ends and D or L forms follow the SMILES beside them. PEG6 = NCCOCCOCCOCCOCCOCCOCCC(=O)O; Pra = C#CC[C@H](N)C(=O)O

What was measured:
hVEGF-A (8-109) = biological target: T1, hVEGF-A (8-109) (Homo sapiens, UniProt P15692); test: SPR binding assay (BIACORE 3000, 37° C.); details: for kd: Table 37, surface plasmon resonance, VEGF-A
T1 sequence (P15692 34-135 isoform P15692-4): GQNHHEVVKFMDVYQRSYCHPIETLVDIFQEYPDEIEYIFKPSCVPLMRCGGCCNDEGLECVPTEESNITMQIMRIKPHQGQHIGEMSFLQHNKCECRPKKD
Protocol: Depending on the format of the assay either a streptavidin sensor (SA) or a dextran-coated (CM5) sensor was utilized as described below.
For use with the SA sensor, VEGF-A was first biotinylated (no more than 2 biotin/VEGF-A) by incubating the protein with EZ-link NHS-PEG4-Biotin (Pierce) in a 1:1.5 molar ratio respectively, in PBS for 2 hours on ice. Reaction was then quenched by addition of 10 molar excess of Glycine pH 8.0 and the sample was buffer exchanged into PBS using an Amicon 0.5 mL 3000 MWCO ultra-centrifugal filters (EMD Millipore). The biotinylation state of the protein was verified by LC-MS analysis. Biotinylated VEGF-A was then captured on the surface until a resonance unit (RU) signal of about ˜400. For immobilization of VEGF-A on CM5 sensor, the surface was first activated with a mixture of N-ethyl-N′-(3-dimethylaminopropyl)carbodiimide hydrochloride and N-hydroxysuccinimide (EDC/NHS) according to the supplier instructions. VEGF-A was then diluted into coupling buffer (0.1 M Acetate Buffer, pH 5.0) and injected until the signal reached about ˜400 RU followed by a wash with 1 M ethanolamine pH 8.0 to quench remaining activated sites.
Following the capture step, a series of the peptide concentrations were prepared in HBS-EP buffer with matching DMSO concentrations to 0.1% and injected at a flow rate of […]. The resulting sensorgrams were then analyzed using a 1:1 binding model to obtain kinetic data and affinities using Scrubber 2.0 (BioLogic Software).

hVEGF(8-109) = biological target: T2, hVEGF(8-109) (Homo sapiens, UniProt P15692); test: Spot phage ELISA; format: binding
T2 construct: hVEGF(8-109) or BSA were coated on 384-well MAXISORP™ immunoplates
T2 sequence (P15692 214-315): T1 sequence (P15692 34-135 isoform P15692-4)
Protocol: After four rounds of binding selection, individual phage clones were picked and inoculated into 450 μl 2YT media containing 50 µg/ml Carbenecillin and M13-KO7 helper phage in 96-well blocks, which were grown at 37° C. overnight. The supernatant was analyzed with spot phage ELISA as follows: hVEGF(8-109) or BSA were coated on 384-well MAXISORP™ immunoplates and phage supernatant diluted (1:3) with PBT buffer was added to the wells. The plates were washed and bound phage was detected with anti-M13-HRP followed by TMB substrate. In these assays, phage binding to BSA alone was tested in parallel to assess background binding. Clones whose binding signals for hVEGF-A (8-109) were more than 3 times higher than to BSA (background) were considered positive. Positive clones were subjected to DNA sequence analysis.

[1] = spot phage ELISA signal, EETI-II-based binders against hVEGF-A, Table 19
[2] = loop 2 variants based on VEGF_CKP9.63 framework, Table 27

| Compound | S/N (signal to noise ratio as compared to BSA control) (hVEGF(8-109); Table 27) | ELISA (hVEGF(8-109); [2]) | further results |
| --- | --- | --- | --- |
| CC[C@H](C)[C@@H]1NC(=O)[C@H](CC(N)=O)NC(=O)[C@@H](NC(=O)CN)CSSC[C@@H](C(=O)N[C@H](C(=O)N[C@H]2CSSC[C@@H](C(=O)NCC(=O)O)NC(=O)[C@H](CO)NC(=O)[C@H](CCC(N)=O)NC(=O)[C@H](Cc3ccc(O)cc3)NC(=O)[C@H](Cc3ccc(O)cc3)NC(=O)[C@H](CCC(N)=O)NC2=O)C(C)C)NC(=O)CNC(=O)[C@H](C)NC(=O)[C@H](CC(C)C)NC(=O)[C@@H]2CSSC[C@H](NC(=O)CNC(=O)[C@H](Cc3c[nH]c4ccccc34)NC(=O)[C@H](Cc3ccc(O)cc3)NC(=O)[C@@H]3CCCN3C(=O)[C@H](CC(C)C)NC(=O)[C@H](CCSC)NC1=O)C(=O)NCC(=O)N[C@@H](CCC(N)=O)C(=O)N[C@@H](CO)C(=O)N[C@@H](Cc1ccccc1)C(=O)N[C@@H](CCC(=O)O)C(=O)N2 [VEGF_CKP9.54.1.F8Y] (H-GCNIMLPYWGCGQSFECLAGCVCQYYQSCG-OH; disulfide 2-21, 11-17, 23-29 (inferred); N-terminus and C-terminus assumed) | – | – | effect of F8Y mutation on affinity/potency (hVEGF-A (8-109); SPR affinity (Table 37) and cellular IC50 (Table 38), vs variant without F8Y): modest improvement; kd (hVEGF-A (8-109)): 0.38 |
| C#CC[C@H](N)C(=O)NCCOCCOCCOCCOCCOCCOCCC(=O)N[C@H]1CSSC[C@@H](C(=O)N[C@H](C(=O)N[C@H]2CSSC[C@@H](C(=O)NCC(=O)O)NC(=O)[C@H](CO)NC(=O)[C@H](CCC(N)=O)NC(=O)[C@H](Cc3ccc(O)cc3)NC(=O)[C@H](Cc3ccc(O)cc3)NC(=O)[C@H](CCC(N)=O)NC2=O)C(C)C)NC(=O)CNC(=O)[C@H](C)NC(=O)[C@H](CC(C)C)NC(=O)[C@@H]2CSSC[C@H](NC(=O)CNC(=O)[C@H](Cc3c[nH]c4ccccc34)NC(=O)[C@H](Cc3ccccc3)NC(=O)[C@@H]3CCCN3C(=O)[C@H](CC(C)C)NC(=O)[C@H](CCSC)NC(=O)[C@H]([C@@H](C)CC)NC(=O)[C@H](CC(N)=O)NC1=O)C(=O)NCC(=O)N[C@@H](CCCNC(=N)N)C(=O)N[C@@H](CC(=O)O)C(=O)N[C@@H](Cc1ccccc1)C(=O)N[C@@H](CCC(=O)O)C(=O)N2 [VEGF_CKP9.54.90-Alkyn] (H-[Pra][PEG6]CNIMLPFWGCGRDFECLAGCVCQYYQSCG-OH; disulfide 3-22, 12-18, 24-30; N-terminus and C-terminus assumed) | – | – | kd (hVEGF-A (8-109)): 0.27 |
| CC[C@H](C)[C@@H]1NC(=O)[C@H](CC(=O)O)NC(=O)[C@H](Cc2c[nH]cn2)NC(=O)[C@@H]2CCCN2C(=O)[C@H](CCC(=O)O)NC(=O)[C@H](Cc2c[nH]c3ccccc23)NC(=O)[C@@H]2CCCN2C(=O)[C@H]([C@@H](C)O)NC(=O)[C@H](CCCNC(=N)N)NC(=O)[C@@H](NC(=O)CN)CSSC[C@@H]2NC(=O)CNC(=O)[C@H](C)NC(=O)[C@H](CC(C)C)NC(=O)[C@@H]3CSSC[C@@H](C(=O)NCC(=O)O)NC(=O)[C@H](Cc4ccccc4)NC(=O)CNC(=O)[C@H](CC(N)=O)NC(=O)[C@@H]4CCCN4C(=O)CNC(=O)[C@H](CSSC[C@H](NC(=O)[C@H]([C@@H](C)O)NC1=O)C(=O)N[C@@H](CCCCN)C(=O)N[C@@H](CCC(N)=O)C(=O)N[C@@H](CC(=O)O)C(=O)N[C@@H](CO)C(=O)N[C@@H](CC(=O)O)C(=O)N3)NC(=O)[C@H](C(C)C)NC2=O [VEGF_CKP11] (H-GCRTPWEPHDITCKQDSDCLAGCVCGPNGFCG-OH; disulfide 2-23, 13-25, 19-31; N-terminus and C-terminus assumed) | – | – | S/N (signal to noise ratio as compared to BSA control) (hVEGF(8-109); Table 19): 57.5; ELISA (hVEGF(8-109); [1]): 4.1 |
| CC[C@H](C)[C@@H]1NC(=O)[C@H](CCC(=O)O)NC(=O)[C@H](Cc2c[nH]cn2)NC(=O)[C@@H]2CCCN2C(=O)[C@@H]2CCCN2C(=O)[C@H](Cc2c[nH]c3ccccc23)NC(=O)[C@@H]2CCCN2C(=O)[C@H]([C@@H](C)O)NC(=O)[C@H]([C@@H](C)O)NC(=O)[C@@H](NC(=O)CN)CSSC[C@@H]2NC(=O)CNC(=O)[C@H](C)NC(=O)[C@H](CC(C)C)NC(=O)[C@@H]3CSSC[C@@H](C(=O)NCC(=O)O)NC(=O)[C@H](Cc4ccccc4)NC(=O)CNC(=O)[C@H](CC(N)=O)NC(=O)[C@@H]4CCCN4C(=O)CNC(=O)[C@H](CSSC[C@H](NC(=O)[C@H](CCSC)NC1=O)C(=O)N[C@@H](CCCCN)C(=O)N[C@@H](CCC(N)=O)C(=O)N[C@@H](CC(=O)O)C(=O)N[C@@H](CO)C(=O)N[C@@H](CC(=O)O)C(=O)N3)NC(=O)[C@H](C(C)C)NC2=O [VEGF_CKP12] (H-GCTTPWPPHEIMCKQDSDCLAGCVCGPNGFCG-OH; disulfide 2-23, 13-25, 19-31; N-terminus and C-terminus assumed) | – | – | S/N (signal to noise ratio as compared to BSA control) (hVEGF(8-109); Table 19): 55.2; ELISA (hVEGF(8-109); [1]): 3.5 |
| CC[C@H](C)[C@@H]1NC(=O)[C@H](Cc2c[nH]c3ccccc23)NC(=O)[C@H](Cc2c[nH]cn2)NC(=O)[C@@H]2CCCN2C(=O)[C@H](CCCCN)NC(=O)[C@H](Cc2c[nH]c3ccccc23)NC(=O)[C@@H]2CCCN2C(=O)[C@H]([C@@H](C)O)NC(=O)[C@H](C(C)C)NC(=O)[C@@H](NC(=O)CN)CSSC[C@@H]2NC(=O)CNC(=O)[C@H](C)NC(=O)[C@H](CC(C)C)NC(=O)[C@@H]3CSSC[C@@H](C(=O)NCC(=O)O)NC(=O)[C@H](Cc4ccccc4)NC(=O)CNC(=O)[C@H](CC(N)=O)NC(=O)[C@@H]4CCCN4C(=O)CNC(=O)[C@H](CSSC[C@H](NC(=O)[C@H](CC(N)=O)NC1=O)C(=O)N[C@@H](CCCCN)C(=O)N[C@@H](CCC(N)=O)C(=O)N[C@@H](CC(=O)O)C(=O)N[C@@H](CO)C(=O)N[C@@H](CC(=O)O)C(=O)N3)NC(=O)[C@H](C(C)C)NC2=O [VEGF_CKP13] (H-GCVTPWKPHWINCKQDSDCLAGCVCGPNGFCG-OH; disulfide 2-23, 13-25, 19-31; N-terminus and C-terminus assumed) | – | – | S/N (signal to noise ratio as compared to BSA control) (hVEGF(8-109); Table 19): 56.3; ELISA (hVEGF(8-109); [1]): 3.5 |
| GCDVMQPYWGCAGDELCLAGCVCHWYNSCG [VEGF_CKP9.63.30] | 26.0 | 2.0 | – |
| GCDVMQPYWGCAGDFECLAGCVCHWYNSCG [VEGF_CKP9.63.42] | 23.1 | 1.7 | – |
| GCDVMQPYWGCDGDFDCLAGCVCHWYNSCG [VEGF_CKP9.63.39] | 18.9 | 1.6 | – |
| GCDVMQPYWGCDGDYQCLAGCVCHWYNSCG [VEGF_CKP9.63.18] | 17.3 | 2.3 | – |
| GCDVMQPYWGCDLNYECLAGCVCHWYNSCG [VEGF_CKP9.63.87] | 8.6 | 0.9 | – |
| GCDVMQPYWGCGADLSCLAGCVCHWYNSCG [VEGF_CKP9.63.62] | 25.4 | 1.8 | – |
| GCDVMQPYWGCGDDLECLAGCVCHWYNSCG [VEGF_CKP9.63.14] | 21.3 | 1.5 | – |
| GCDVMQPYWGCGENLACLAGCVCHWYNSCG [VEGF_CKP9.63.54] | 19.9 | 1.4 | – |
| GCDVMQPYWGCGFDMDCLAGCVCHWYNSCG [VEGF_CKP9.63.65] | 27.1 | 2.0 | – |
| GCDVMQPYWGCGLDEECLAGCVCHWYNSCG [VEGF_CKP9.63.37] | 8.6 | 0.6 | – |
| GCDVMQPYWGCGMDIECLAGCVCHWYNSCG [VEGF_CKP9.63.16] | 10.3 | 2.2 | – |
| GCDVMQPYWGCGNDVSCLAGCVCHWYNSCG [VEGF_CKP9.63.24] | 20.4 | 1.6 | – |
| GCDVMQPYWGCGNSFECLAGCVCHWYNSCG [VEGF_CKP9.63.47] | 20.7 | 1.7 | – |
| GCDVMQPYWGCGQDLTCLAGCVCHWYNSCG [VEGF_CKP9.63.50] | 12.7 | 0.9 | – |
| GCDVMQPYWGCGQDYNCLAGCVCHWYNSCG [VEGF_CKP9.63.56] | 8.4 | 1.8 | – |
| GCDVMQPYWGCGRDLQCLAGCVCHWYNSCG [VEGF_CKP9.63.2] | 15.0 | 2.0 | – |
| GCDVMQPYWGCGVDLSCLAGCVCHWYNSCG [VEGF_CKP9.63.3] | 20.7 | 1.7 | – |
| GCDVMQPYWGCGVDMTCLAGCVCHWYNSCG [VEGF_CKP9.63.15] | 21.4 | 1.5 | – |
| GCQLMQPFWGCKQDSDCLAGCVCHWYQSCG [VEGF_CKP9.L5.18] | – | – | S/N (signal to noise ratio as compared to BSA control) (hVEGF(8-109); Table 23): 20.4; ELISA (hVEGF(8-109); VEGF_CKP9 Loop5 affinity-matured variants, Table 23): 1.6 |
